Measurements published in US5674835, “Papillomaviral expression inhibitors” (New England Medical Center Hospitals, Inc.).

T1: BPV-1 E2 C-terminal segment (cII-E2 fusion, pCOE2-1) (Bovine papillomavirus type 1, UniProt P03122 P03122:114-410)
T1 chain: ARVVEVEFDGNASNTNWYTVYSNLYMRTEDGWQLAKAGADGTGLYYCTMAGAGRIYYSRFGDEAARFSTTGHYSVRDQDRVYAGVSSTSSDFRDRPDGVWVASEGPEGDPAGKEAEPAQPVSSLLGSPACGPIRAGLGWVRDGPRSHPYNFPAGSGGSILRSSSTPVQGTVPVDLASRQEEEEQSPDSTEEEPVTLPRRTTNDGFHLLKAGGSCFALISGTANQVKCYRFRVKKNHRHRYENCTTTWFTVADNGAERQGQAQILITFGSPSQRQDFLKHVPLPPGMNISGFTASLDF

B1: 23 bp fragment without E2 site (dsDNA)
DNA 1: GCGCATAATCAGCTTAATTGGTG
DNA 2: CACCAATTAAGCTGATTATGCGC
B2: 23 bp URR fragment with E2 site IIIb (dsDNA)
DNA 1: CGTCAAACCGTCTTCGGTGCTC
DNA 2: GAGCACCGAAGACGGTTTGACG

Columns and labels:
Conditions in all cases: tags: 13 N-terminal amino acids of lambda cII; partially purified from E. coli N6405; chain copies: 2
[1] = molecular target: T1, BPV-1 E2 C-terminal segment (cII-E2 …); experiment: competition; single strand did not block immunoprecipitation of dsDNA
[2] = molecular target: T1, BPV-1 E2 C-terminal segment (cII-E2 …); experiment: competition; relative to N1; no consensus site
[3] = molecular target: T1, BPV-1 E2 C-terminal segment (cII-E2 …); experiment: competition; about 1000 times more effective competitor than N2; DNA immunoprecipitation

Binder	binding result [1]	further results
CGTCAAACCGTCTTCGGTGCTC (ssDNA) [single-stranded oligonucleotide with site IIIb]	no binding	
B1		binding signal [2]: ~0.001 fold
GCGCATAATCAGCTTAATTGGTG (ssDNA) [single-stranded oligonucleotide without E2 site]	no binding	
B2		binding signal [3]: ~1000 fold
